T1: ITGA6-Fc
T1 construct: Fc fusion
T1 sequence (P23229 whole entry, species assumed, looked up): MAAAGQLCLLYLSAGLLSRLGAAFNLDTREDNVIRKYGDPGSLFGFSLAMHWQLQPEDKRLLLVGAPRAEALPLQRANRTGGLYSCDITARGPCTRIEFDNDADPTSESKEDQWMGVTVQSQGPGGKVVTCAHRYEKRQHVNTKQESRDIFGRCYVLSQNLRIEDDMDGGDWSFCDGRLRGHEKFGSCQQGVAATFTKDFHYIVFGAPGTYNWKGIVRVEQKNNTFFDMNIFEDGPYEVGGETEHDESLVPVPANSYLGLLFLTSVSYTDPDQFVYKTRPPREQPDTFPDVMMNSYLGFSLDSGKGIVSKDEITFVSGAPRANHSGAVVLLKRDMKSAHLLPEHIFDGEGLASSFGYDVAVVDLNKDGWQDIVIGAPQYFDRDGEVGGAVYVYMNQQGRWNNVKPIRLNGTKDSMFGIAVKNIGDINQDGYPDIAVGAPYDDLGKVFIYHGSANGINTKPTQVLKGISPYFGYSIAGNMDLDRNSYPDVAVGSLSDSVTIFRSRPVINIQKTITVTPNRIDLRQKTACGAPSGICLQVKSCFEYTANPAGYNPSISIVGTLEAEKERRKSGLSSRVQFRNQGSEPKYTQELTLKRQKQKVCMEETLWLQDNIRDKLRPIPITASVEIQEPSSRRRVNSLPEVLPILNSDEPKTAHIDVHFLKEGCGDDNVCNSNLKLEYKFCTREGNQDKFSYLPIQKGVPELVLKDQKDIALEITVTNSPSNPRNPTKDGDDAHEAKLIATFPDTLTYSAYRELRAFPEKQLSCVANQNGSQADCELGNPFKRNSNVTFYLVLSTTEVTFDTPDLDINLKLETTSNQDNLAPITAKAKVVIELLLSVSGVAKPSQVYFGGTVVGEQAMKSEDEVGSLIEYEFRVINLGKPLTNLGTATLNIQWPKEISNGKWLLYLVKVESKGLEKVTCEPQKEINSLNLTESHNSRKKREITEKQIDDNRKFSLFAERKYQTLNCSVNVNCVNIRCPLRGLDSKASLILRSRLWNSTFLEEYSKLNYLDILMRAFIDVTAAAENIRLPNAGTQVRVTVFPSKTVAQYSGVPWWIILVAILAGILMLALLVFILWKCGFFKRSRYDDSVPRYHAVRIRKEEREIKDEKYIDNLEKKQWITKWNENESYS

B1: PD1-32A6 (antibody, V domains shown)
VH: QVQLVQSGAEVKKPGSSVKVSCKASGDTFTRNAVSWVRQAPGEGLEWMADIIPIFGSANYAQKFQGRLTLTADVSTSTAYMELSSLRSEDTAVYYCARTIEGAFDIWGQGTMVTVSS
VL: DIQMTQSPSSVSASVGDRVTITCRASQGIVSWLAWYQQKPGKAPRLLIYRASDLETGVPSRFSGSGSGTDFTLTISSLQPEDVATYYCQQADSFPLTFGGGTKVEIK
notes: scFv-phage in the screening ELISA; later whole IgG
B2: PD1-44B5 (antibody, V domains shown)
VH: QVQLVESGGGVVQPGRSLRLSCAASGFTFSSYAMHWVRQAPGKGLEWVAVISYDGSNKYYADSVKGRFTISRDNSKNTLYLQMNSLRAEDTAVYYCARLMHTFSVQYFLDVWGQGTTVTVSS
VL: QFVLTQSPSASGTPGQNIVISCSASTFNIGTTTVNWYQRLPGTAPKLLIYNYDQRPSGVPDRFSGSKSGTSASLAISGLQSEDEADYYCAAWDDSLNAWLFGGGTKLTVL
notes: as for B1
B3: PD1-42G4 (antibody, V domains shown)
VH: QVQLVESGGGLVKPGGSLRLSCAASGFTFSDYYMSWIRQAPGKGLEWVSDISASGNSIYYADSVKRRFTISRDNSKNSLYLQMNSLRAEDTAVYYCVTSGPFGEFRNWGLGTLVTVSS
VL: DIQMTQSPSSLSASVGDRVTTTCRASQGISSYLAWYQQKPGKAPKLLIYAASTLQSGVPSRFSGSGSGTDFTLTISSLQPEDFATYFCQQSYTSPRTFGQGTKLDIK
notes: as for B1
B4: PD1-31F3 (antibody, V domains shown)
VH: QVQLVQSGAEVKKPGSSVKVSCKASGGTFSSYAISWVRQAPGQGLEWMGGIIPLFSTAHSAQKFQGRVTITADESSSTAYMELSSLRSEDTAVYYCAKHKGLPFDWSPDGFDTWGQGTMVTVSS
VL: QFVLTQPPSVSGAPGQRVIISCTGSSSNIGAGYDVHWYQQLPGTAPKVLIYGNSDRPSGVPDRFSASKSATSASLAITGLQAEDEADYYCQSYDSSLSGYVFGTGTKVTVL
notes: as for B1
B5: PD1-29H3 (antibody, V domains shown)
VH: QMQLVESGGNLVQPGRSLRLSCAASGFTFDDYGMHWVRQAPGKGLEWVSSISWNSGTIGYADSVKGRFTISRDNAKNSLYLQMNSLRSEDTAVYYCARLLHQMNEHEFMDVWGQGTTVTVSS
VL: QLVLTQPSSMSEAPGQRVTISCSGGTSNIGTNAVNWYQQPPGKAPTLLIYYDDRLTSGVSDRFSGSKSGTSASLAISRLQSEDEADYYCAAWDDSLNGWVFGGGTKLTVL
notes: as for B1
B6: PD1-51D9 (antibody, V domains shown)
VH: QVQLVESGAEVKKPGASVKLSCKASGYTFSSYWMHWVRQAPGQRLEWMGEINPGNGHTNYNEKFKSRVTITVDKSASTAYMELSSLRSEDTAVYYCAREGDGSYWGYFDSWGQGTPITVSS
VL: DIVMTQTPLSLPVTPGEPASISCRSSQSLLHSNGNNYLDWYLQKPGQSPQLLIYLGSYRASGVPDRFSGSGSGTDFTLKISRVEAEDVGLYYCMQGLQIPSTFGPGTKVDIK
notes: scFv-phage in the screening ELISA; whole IgG in the other assays

target: T2, M7-1; test: scFv-phage ELISA
T2 construct: also called PD1 mutant M7-1

Row | Binder | OD490
1 | B1 | 3.1
2 | B2 | 3.7
3 | B3 | 2.8
4 | B4 | 0.8
5 | B5 | 1.5
6 | B6 | 0.1

target: T3, antigen PD1 (coated, construct not stated) (UniProt Q15116 25-170, limits assumed); test: scFv-phage ELISA
T3 construct: also called PD1 antigen; PDCD1
T3 sequence (Q15116 25-170 limits assumed): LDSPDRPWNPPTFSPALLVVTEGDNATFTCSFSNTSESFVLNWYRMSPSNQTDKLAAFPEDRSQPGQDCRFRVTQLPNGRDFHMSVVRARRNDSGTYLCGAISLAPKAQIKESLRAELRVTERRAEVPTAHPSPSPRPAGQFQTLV

Row | Binder | OD490
7 | B1 | 3.5
8 | B2 | 3.8
9 | B3 | 2.8
10 | B4 | 2
11 | B5 | 3.6

target: T4, M10; test: scFv-phage ELISA
T4 construct: also called PD1 mutant M10

Row | Binder | OD490
12 | B1 | 2.5
13 | B2 | 3.7
14 | B3 | 3.1
15 | B4 | 3
16 | B5 | 3
17 | B6 | 0.1

target: T5, M5; test: scFv-phage ELISA
T5 construct: also called PD1 mutant M5

Row | Binder | OD490
18 | B1 | 2.9
19 | B2 | 3.7
20 | B3 | 1.6
21 | B4 | 1.1
22 | B5 | 2
23 | B6 | 0.1

target: T6, M4; test: scFv-phage ELISA
T6 construct: also called PD1 mutant M4

Row | Binder | OD490
24 | B1 | 2.4
25 | B2 | 3.6
26 | B3 | 1.9
27 | B4 | 2.7
28 | B5 | 3.3
29 | B6 | 1.1

target: T7, M5-1; test: scFv-phage ELISA
T7 construct: also called PD1 mutant M5-1

Row | Binder | OD490
30 | B1 | 3.6
31 | B2 | 3.7
32 | B3 | 1.9
33 | B4 | 1.3
34 | B5 | 2
35 | B6 | 0.1

target: T8, M8; test: scFv-phage ELISA
T8 construct: also called PD1 mutant M8

Row | Binder | OD490
36 | B1 | 3.1
37 | B2 | 3.5
38 | B3 | 2.1
39 | B4 | 1.7
40 | B5 | 2.2
41 | B6 | 0.1

target: T9, M1-2; test: scFv-phage ELISA
T9 construct: also called PD1 mutant M1-2

Row | Binder | OD490
42 | B1 | 2.8
43 | B2 | 0.3
44 | B3 | 0.6
45 | B4 | 3.2
46 | B5 | 0.6
47 | B6 | 0.4

target: T10, M2; test: scFv-phage ELISA
T10 construct: also called PD1 mutant M2

Row | Binder | OD490
48 | B1 | 3.2
49 | B2 | 3.7
50 | B3 | 0.6
51 | B4 | 0.7
52 | B5 | 0.7
53 | B6 | 0.1

target: T11, M1-1; test: scFv-phage ELISA
T11 construct: also called PD1 mutant M1-1

Row | Binder | OD490
54 | B1 | 2.6
55 | B2 | 3.6
56 | B3 | 2.9
57 | B4 | 3
58 | B5 | 3.2
59 | B6 | 0.2

target: T12, M7-2; test: scFv-phage ELISA
T12 construct: also called PD1 mutant M7-2

Row | Binder | OD490
60 | B1 | 2.8
61 | B2 | 3.7
62 | B3 | 2.7
63 | B4 | 1.5
64 | B5 | 3.1
65 | B6 | 0.3

target: T13, M6; test: scFv-phage ELISA
T13 construct: also called PD1 mutant M6

Row | Binder | OD490
66 | B1 | 2.9
67 | B2 | 3.7
68 | B3 | 3.3
69 | B4 | 3.3
70 | B5 | 3.5
71 | B6 | 0.3

target: T1, ITGA6-Fc; test: scFv-phage ELISA

Row | Binder | OD490
72 | B1 | 0.3
73 | B2 | 0.3
74 | B3 | 0.4
75 | B4 | 0.4
76 | B5 | 0.3
77 | B6 | 0.1

target: T14, M13; test: scFv-phage ELISA
T14 construct: also called PD1 mutant M13

Row | Binder | OD490
78 | B1 | 0.5
79 | B2 | 3.7
80 | B3 | 3.7
81 | B4 | 3.3
82 | B5 | 3.5
83 | B6 | 0.7

target: T15, M7; test: scFv-phage ELISA
T15 construct: also called PD1 mutant M7

Row | Binder | OD490
84 | B1 | 3.2
85 | B2 | 3.6
86 | B3 | 2.5
87 | B4 | 0.7
88 | B5 | 1.4
89 | B6 | 0.1

target: T16, M9; test: scFv-phage ELISA
T16 construct: also called PD1 mutant M9

Row | Binder | OD490
90 | B1 | 2.4
91 | B2 | 3.7
92 | B3 | 3.4
93 | B4 | 3.2
94 | B5 | 3.4
95 | B6 | 0.3

target: T17, M12; test: scFv-phage ELISA
T17 construct: also called PD1 mutant M12

Row | Binder | OD490
96 | B1 | 2.7
97 | B2 | 3.6
98 | B3 | 2.7
99 | B4 | 2.6
100 | B5 | 3
101 | B6 | 0.3

target: T18, M2-1; test: scFv-phage ELISA
T18 construct: also called PD1 mutant M2-1

Row | Binder | OD490
102 | B1 | 2.8
103 | B2 | 3.6
104 | B3 | 0.6
105 | B4 | 3.5
106 | B5 | 2.8
107 | B6 | 0.4

target: T19, M14; test: scFv-phage ELISA
T19 construct: also called PD1 mutant M14

Row | Binder | OD490
108 | B1 | 1.7
109 | B2 | 3.7
110 | B3 | 3.7
111 | B4 | 3.4
112 | B5 | 3.5
113 | B6 | 0.8

target: T20, M3; test: scFv-phage ELISA
T20 construct: also called PD1 mutant M3

Row | Binder | OD490
114 | B1 | 3
115 | B2 | 3.7
116 | B3 | 2
117 | B4 | 1.9
118 | B5 | 2.3
119 | B6 | 0.3

target: T21, M11; test: scFv-phage ELISA
T21 construct: also called PD1 mutant M11

Row | Binder | OD490
120 | B1 | 3.3
121 | B2 | 3.8
122 | B3 | 1.7
123 | B4 | 0.8
124 | B5 | 1
125 | B6 | 0.1

target: T22, M5-2; test: scFv-phage ELISA
T22 construct: also called PD1 mutant M5-2

Row | Binder | OD490
126 | B1 | 2.8
127 | B2 | 3.8
128 | B3 | 3.5
129 | B4 | 3.4
130 | B5 | 3.7
131 | B6 | 0.6

target: T23, M2-2; test: scFv-phage ELISA
T23 construct: also called PD1 mutant M2-2

Row | Binder | OD490
132 | B1 | 2.7
133 | B2 | 3.7
134 | B3 | 3
135 | B4 | 3.3
136 | B5 | 3.2
137 | B6 | 0.6

target: T24, M1; test: scFv-phage ELISA
T24 construct: also called PD1 mutant M1

Row | Binder | OD490
138 | B1 | 2.4
139 | B2 | 3.8
140 | B3 | 1.8
141 | B4 | 3
142 | B5 | 1.5
143 | B6 | 0.2

Reference: patent US20190248900A1 (Y BIOLOGICS, published 2019)
